This note sets out measurements from US20090238814A1.

For test [1], the target named is wheat germ agglutinin (Triticum vulgaris, WGA)-agarose CL-4B (Triticum vulgaris) (UniProt P10968). Kind of test: WGA-agarose lectin affinity chromatography, enzyme activity of fractions.
The target is the same in test [2]. Briefly: WGA-agarose lectin affinity chromatography, eluted with 0.5 M GlcNAc.
Test [3] concerns the target concanavalin A (Canavalia ensiformis, ConA)-sepharose 4B (Canavalia ensiformis) (UniProt P02866). Briefly: ConA-sepharose lectin affinity chromatography, eluted with 0.01 M alpha-methyl-D-mannopyranoside.
For test [4] the target is unchanged. Briefly: ConA-sepharose lectin affinity chromatography, eluted with 0.5 M alpha-methyl-D-mannopyranoside.
Test [5] has the same target. Kind of test: ConA-sepharose lectin affinity chromatography, enzyme activity of fractions.
Test [6] concerns the target wheat germ agglutinin (Triticum vulgaris, WGA)-agarose CL-4B (Triticum vulgaris) (UniProt P10968). Kind of test: WGA-agarose lectin affinity chromatography, eluted with 0.1 M GlcNAc.
For test [7] the target is unchanged. Kind of test: WGA-agarose lectin affinity chromatography after neuraminidase digestion, eluted with 0.1 M GlcNAc.
For test [8] the target is unchanged. Kind of test: WGA-agarose lectin affinity chromatography after neuraminidase digestion, eluted with 0.5 M GlcNAc.
For test [9] the target is unchanged. Briefly: WGA-agarose lectin affinity chromatography after neuraminidase digestion of the enzyme.
Test [10] has the same target. Briefly: WGA-agarose lectin affinity chromatography.

Chain of UniProt P10968 (P10968 27-197): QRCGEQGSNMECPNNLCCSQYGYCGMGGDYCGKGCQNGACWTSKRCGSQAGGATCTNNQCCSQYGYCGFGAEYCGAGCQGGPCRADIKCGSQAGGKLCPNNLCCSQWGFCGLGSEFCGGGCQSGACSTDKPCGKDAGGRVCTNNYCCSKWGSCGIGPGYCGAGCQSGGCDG

With “CD6-TNSALP (human TNSALP anchorless at the C-terminal tagged with a stretch of six L-Asp) (from UniProt P05186 18-505) (enzyme)”, the percent of relative activity in Unbound fraction in test [1] was 3%; in test [5], 4%. The percent of relative activity in Strongly Bound fraction in test [2] came to 65%; in [4] it was 36%. Moreover, the figures for the percent of relative activity in Weakly Bound fraction in test [3] and in [6] were 60% and 32%, respectively.

Turning to “CD6-TNSALP after neuraminidase digestion (from UniProt P05186 18-505) (enzyme)”, the percent of relative activity in Weakly Bound fraction in [7] came to 11%. Besides, in test [8], the percent of relative activity in Strongly Bound fraction came out at 86%. In addition, the percent of relative activity in Unbound fraction in [9] was 2%.

As for “CD8-TNSALP (human TNSALP anchorless at the C-terminal tagged with a stretch of eight L-Asp) (from UniProt P05186 18-505) (enzyme)”, the percent of relative activity in Unbound fraction in [1] was found to be 1%; in test [5], 2%. The percent of relative activity in Strongly Bound fraction came to 76% in test [2] and 39% in test [4]. Moreover, the percent of relative activity in Weakly Bound fraction came to 59% in test [3] and 23% in test [6].

As to “CD8-TNSALP after neuraminidase digestion (from UniProt P05186 18-505) (enzyme)”, in test [7], the percent of relative activity in Weakly Bound fraction came to 4%. This substance also displayed a percent of relative activity in Strongly Bound fraction in test [8] of 92%. For the same substance, the percent of relative activity in Unbound fraction in test [9] is 4%.

“anchorless recombinant human TNSALP (human tissue-nonspecific alkaline phosphatase anchorless at the C-terminal) (from UniProt P05186 18-505) (enzyme)”: the percent of relative activity in Unbound fraction worked out at 0% in test [1] and 3% in test [5]. In [10], this substance had a percent strongly bound to the WGA column of 34%. The percent of relative activity in Strongly Bound fraction stood at 33% in test [2] and 38% in [4]. The percent of relative activity in Weakly Bound fraction was 59% in [3] and 66% in test [6].

With “anchorless rhTNSALP after neuraminidase digestion (from UniProt P05186 18-505) (enzyme)”, the percent of relative activity in Weakly Bound fraction in test [7] turned out to be 9%. The same substance registered a percent of relative activity in Strongly Bound fraction in [8] of 91%. This substance came in with a percent of relative activity in Unbound fraction in test [9] of 0%.
